Measurements from the Human Domainome abundance scans (Beltran et al. 2025).
± gives the uncertainty stated by the source.

B1: Histone H1t, residues 44 to 112; numbered along this chain, P22492 (parent)
chain: VSKLITEALSVSQERVGMSLVALKKALAAAGYDVEKNNSRIKLSLKSLVNKGILVQTRGTGASGSFKLS

Variants of: B1
Experiment: abundance fitness (aPCA) (normalised: wild type 0, dead -1); higher = more abundant; growth selection in yeast, the domain comes from the species named
Conditions: Homo sapiens

VSKLITEALSVSQERVGMSLVALKKALAAAGYDVEKNNSRIKLSLKSLVNKGPLVQTRGTGASGSFKLS [I53P] and VSKLITEALSVSQERVGMSLVALKKALAAAGYDVEKNNSRIKLSLKSLVNKGGLVQTRGTGASGSFKLS [I53G] are within error of each other in abundance fitness: -0.202 ± 0.041 for the first, -0.363 ± 0.13 for the second.

VSKLITEALSVSQERVGMSLVALKKALAAAGYDVEKNNSRIKLSLKSLVNKGCLVQTRGTGASGSFKLS [I53C] and VSKLITEALSVSQERVGMSLVALKKALAAAGYDVEKNNSRIKLSLKSLVNKGALVQTRGTGASGSFKLS [I53A] are within error of each other in abundance fitness: -0.153 ± 0.063 for the first, -0.118 ± 0.058 for the second.

Compared with VSKLITEALSVSQERVGMSLVALKKALAAAGYDVEKNNSRIKLSLKSLVNKGYLVQTRGTGASGSFKLS [I53Y], VSKLITEALSVSQERVGMSLVALKKALAAAGYDVEKNNSRIKLSLKSLVNKGFLVQTRGTGASGSFKLS [I53F] is higher in abundance fitness: -0.184 ± 0.056 for the first, -0.031 ± 0.042 for the second.

VSKLITEALSVSQERVGMSLVALKKALAAAGYDVEKNNSRIKLSLKSLVNKGHLVQTRGTGASGSFKLS [I53H] and VSKLITEALSVSQERVGMSLVALKKALAAAGYDVEKNNSRIKLSLKSLVNKGSLVQTRGTGASGSFKLS [I53S] are within error of each other in abundance fitness: -0.095 ± 0.058 for the first, -0.081 ± 0.038 for the second.

VSKLITEALSVSQERVGMSLVALKKALAAAGYDVEKNNSRIKLSLKSLVNKGVLVQTRGTGASGSFKLS [I53V] and VSKLITEALSVSQERVGMSLVALKKALAAAGYDVEKNNSRIKLSLKSLVNKGQLVQTRGTGASGSFKLS [I53Q] are within error of each other in abundance fitness: -0.025 ± 0.045 for the first, 0.033 ± 0.046 for the second.

VSKLITEALSVSQERVGMSLVALKKALAAAGYDVEKNNSRIKLSLKSLVNKGMLVQTRGTGASGSFKLS [I53M] and VSKLITEALSVSQERVGMSLVALKKALAAAGYDVEKNNSRIKLSLKSLVNKGRLVQTRGTGASGSFKLS [I53R] are within error of each other in abundance fitness: -0.054 ± 0.048 for the first, -0.099 ± 0.068 for the second.

VSKLITEALSVSQERVGMSLVALKKALAAAGYDVEKNNSRIKLSLKSLVNKGTLVQTRGTGASGSFKLS [I53T] and VSKLITEALSVSQERVGMSLVALKKALAAAGYDVEKNNSRIKLSLKSLVNKGLLVQTRGTGASGSFKLS [I53L] are within error of each other in abundance fitness: -0.082 ± 0.058 for the first, -0.067 ± 0.029 for the second.

VSKLITEALSVSQERVGMSLVALKKALAAAGYDVEKNNSRIKLSLKSLVNKGWLVQTRGTGASGSFKLS [I53W] and VSKLITEALSVSQERVGMSLVALKKALAAAGYDVEKNNSRIKLSLKSLVNKGELVQTRGTGASGSFKLS [I53E] are within error of each other in abundance fitness: -0.062 ± 0.075 for the first, -0.002 ± 0.053 for the second.

First: VSKLITEALSVSQERVGMSLVALKKALAAAGYDVEKNNSRIKLSLKSLVNKTILVQTRGTGASGSFKLS [G52T]
Second: VSKLITEALSVSQERVGMSLVALKKALAAAGYDVEKNNSRIKLSLKSLVNKHILVQTRGTGASGSFKLS [G52H]
The abundance fitness of the first is higher: -0.15 ± 0.036 for the first, -0.283 ± 0.05 for the second.

First: VSKLITEALSVSQERVGMSLVALKKALAAAGYDVEKNNSRIKLSLKSLVNKFILVQTRGTGASGSFKLS [G52F]
Second: VSKLITEALSVSQERVGMSLVALKKALAAAGYDVEKNNSRIKLSLKSLVNKPILVQTRGTGASGSFKLS [G52P]
The abundance fitness of the first is higher: -0.184 ± 0.045 for the first, -0.39 ± 0.032 for the second.

First: VSKLITEALSVSQERVGMSLVALKKALAAAGYDVEKNNSRIKLSLKSLVNKQILVQTRGTGASGSFKLS [G52Q]
Second: VSKLITEALSVSQERVGMSLVALKKALAAAGYDVEKNNSRIKLSLKSLVNKYILVQTRGTGASGSFKLS [G52Y]
The abundance fitness of the first is higher: -0.3 ± 0.048 for the first, -0.425 ± 0.067 for the second.

Going from VSKLITEALSVSQERVGMSLVALKKALAAAGYDVEKNNSRIKLSLKSLVNKNILVQTRGTGASGSFKLS [G52N] to VSKLITEALSVSQERVGMSLVALKKALAAAGYDVEKNNSRIKLSLKSLVNKRILVQTRGTGASGSFKLS [G52R], the abundance fitness falls from -0.201 ± 0.079 to -0.434 ± 0.099.

Going from VSKLITEALSVSQERVGMSLVALKKALAAAGYDVEKNNSRIKLSLKSLVNKSILVQTRGTGASGSFKLS [G52S] to VSKLITEALSVSQERVGMSLVALKKALAAAGYDVEKNNSRIKLSLKSLVNKIILVQTRGTGASGSFKLS [G52I], the abundance fitness falls from -0.129 ± 0.033 to -0.352 ± 0.054.

VSKLITEALSVSQERVGMSLVALKKALAAAGYDVEKNNSRIKLSLKSLVNKMILVQTRGTGASGSFKLS [G52M] and VSKLITEALSVSQERVGMSLVALKKALAAAGYDVEKNNSRIKLSLKSLVNKDILVQTRGTGASGSFKLS [G52D] are within error of each other in abundance fitness: -0.199 ± 0.052 for the first, -0.08 ± 0.45 for the second.

VSKLITEALSVSQERVGMSLVALKKALAAAGYDVEKNNSRIKLSLKSLVNKKILVQTRGTGASGSFKLS [G52K] and VSKLITEALSVSQERVGMSLVALKKALAAAGYDVEKNNSRIKLSLKSLVNKLILVQTRGTGASGSFKLS [G52L] are within error of each other in abundance fitness: -0.123 ± 0.066 for the first, -0.212 ± 0.03 for the second.

Compared with VSKLITEALSVSQERVGMSLVALKKALAAAGYDVEKNNSRIKLSLKSLVNKWILVQTRGTGASGSFKLS [G52W], VSKLITEALSVSQERVGMSLVALKKALAAAGYDVEKNNSRIKLSLKSLVNKGILVKTRGTGASGSFKLS [Q56K] is higher in abundance fitness: -0.457 ± 0.2 for the first, 0.083 ± 0.029 for the second.

Going from VSKLITEALSVSQERVGMSLVALKKALAAAGYDVEKNNSRIKLSLKSLVNKGILVETRGTGASGSFKLS [Q56E] to VSKLITEALSVSQERVGMSLVALKKALAAAGYDVEKNNSRIKLSLKSLVNKGILVRTRGTGASGSFKLS [Q56R], the abundance fitness falls from 0.127 ± 0.045 to -0.031 ± 0.034.

First: VSKLITEALSVSQERVGMSLVALKKALAAAGYDVEKNNSRIKLSLKSLVNKGILVTTRGTGASGSFKLS [Q56T]
Second: VSKLITEALSVSQERVGMSLVALKKALAAAGYDVEKNNSRIKLSLKSLVNKGILVPTRGTGASGSFKLS [Q56P]
The abundance fitness of the first is higher: 0.047 ± 0.028 for the first, -0.026 ± 0.03 for the second.

Going from VSKLITEALSVSQERVGMSLVALKKALAAAGYDVEKNNSRIKLSLKSLVNKGILVATRGTGASGSFKLS [Q56A] to VSKLITEALSVSQERVGMSLVALKKALAAAGYDVEKNNSRIKLSLKSLVNKGILVGTRGTGASGSFKLS [Q56G], the abundance fitness falls from 0.212 ± 0.037 to 0.005 ± 0.053.

With VSKLITEALSVSQERVGMSLVALKKALAAAGYDVEKNNSRIKLSLKSLVNKGILVQHRGTGASGSFKLS [T57H] the abundance fitness was -0.001 ± 0.041.
